# Measured values as given in the supplement of paper PMC10126150.
# ± gives the standard deviation of the averaged measurements.
# System: ATP
# Test: switch fluorescence ratio, 500 uM ATP over buffer (Cy3 cluster intensity, sum of 5 cycles each) (fold (ratio)); higher = stronger signal-on switching upon ATP binding; sequences stand for … in TCGTCGGCAGCGTCAGATGTGTATAAGAGACAGTTTTTTTTTTTTTTTTTTTTTTTTT…TC
# Conditions: aptamer strand: ATP DNA aptamer (quencher-CACCTGGGGGAGTATTGCGGAGGAAGG + anchor), 100 nM annealed; ATP concentration: 500 uM
# Method in brief: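 The quencher-labelled ATP aptamer, at 100 nM, was annealed to Cy3-labelled switching-strand clusters on a modified Illumina MiSeq flow-cell. The clusters were imaged in selection buffer, then after 15 min with 500 uM ATP at 22 °C, and this buffer/ATP cycle ran five times with NaOH stripping and re-annealing between runs. Per-cluster fluorescence ratios, summed target-cycle over summed buffer-cycle Cy3 intensity, were averaged per switch-domain sequence. Clusters outside 100-1000 RFU were excluded.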
# 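Further: ATP exposure 15 min at 22 °C before imaging.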
row,Sequence,switch fluorescence ratio
1,GAGGTGTTTT,1.01 ± 0.06
2,GTTGACTTAA,1.02 ± 0.013
3,TCACTTTGCG,0.984 ± 0.032
4,TGGGAGGGCT,1.05 ± 0.093
5,GATAGGGCTT,0.994 ± 0.056
6,GATATGGCAC,1.05 ± 0.042
7,GGGCATATAG,1.61 ± 0.71
8,TGGTTTTGAT,1.001 ± 0.0047
9,ATCCTAATGG,0.983 ± 0.012
10,ACATTGTACG,1.09 ± 0.019
11,ATCCGGGGAA,1.02 ± 0.0032
12,GGCGCGAGAG,1.032 ± 0.0092
13,CAAGTGAGGC,0.987 ± 0.075
14,GGGGCGTTCG,1 ± 0.071
15,TCGGTTGTGA,0.999 ± 0.011
16,GGGGGGGGCG,1.01 ± 0.052
17,TTCCATAGGG,0.987 ± 0.022
18,TTGGGGGGA,0.997 ± 0.048
19,TCTAAGGGA,1.01 ± 0.018
20,GATGCTCCTT,1.05 ± 0.031
21,GTTGGTTCGT,1.02 ± 0.034
22,AATCGGTCTG,1.03 ± 0.02
23,CTTATGAGGG,0.99 ± 0.025
24,TTTGATCAGA,1 ± 0.025
25,TGGGTATACG,1.01 ± 0.049
26,ATGTGCTTGG,1.02 ± 0.027

row,Sequence,switch fluorescence ratio
1,TGGGGGGCAT,1.07 ± 0.19
2,TTAAAGTCGA,1.0194 ± 0.00069
3,GGTGTTTTTT,0.99 ± 0.011
4,AAGGGCTAGA,1 ± 0.016
5,TTCATGGGG,0.9879 ± 0.0094
6,TCCACGATTA,1.108 ± 0.011
7,TTGCAGTAAT,1.87 ± 1.1
8,TATAAGGAGT,1.01 ± 0.044
9,TCGAGGGGAC,1.67 ± 1.4
10,GTTTGTGTAC,1.11 ± 0.075
11,TTGGTGGGAA,1 ± 0.025
12,GGGGGCTGGT,1 ± 0.0022
13,CAGGATGCAT,1.01 ± 0.02
14,GGATGCCGGG,1 ± 0.043
15,TATAGGCCCC,0.983 ± 0.015
16,AAAATGCAG,0.9856 ± 0.0015
17,ACATCATACG,1.233 ± 0.01
18,AATCAAGTAG,0.9821 ± 0.0086
19,TGGGCAGGGG,1.3 ± 0.57
20,GTTTTAATGG,1.01 ± 0.025
21,ATTTGTGTAC,1.047 ± 0.0071
22,GTATGTGGGG,0.996 ± 0.038
23,ACTGTTAATA,1.03 ± 0.023
24,GTGTGAGTTC,1.01 ± 0.017
25,GGGGATGGCA,1.02 ± 0.012
26,ATTGTTGATC,1.01 ± 0.029

row,Sequence,switch fluorescence ratio
1,CGCGTGGCTG,1 ± 0.019
2,TCTGAAAACT,1.06 ± 0.0013
3,ATCATTCTTC,0.977 ± 0.034
4,CGGAAGGAAG,0.946 ± 0.036
5,GCAAAAAGGA,1.6 ± 0.89
6,GCGGTTCCTC,1.05 ± 0.027
7,GGACATGGGT,1 ± 0.019
8,ACTTGGGCTT,1.03 ± 0.051
9,TGGAATATTC,1.04 ± 0.011
10,AGGCACGCGC,1.01 ± 0.013
11,TAAGGGGGCT,1.01 ± 0.034
12,GACTAATGAT,1.02 ± 0.024
13,TAAGAGGGGT,1.03 ± 0.07
14,GCCGAAGGGG,1.004 ± 0.0035
15,TGTTTGAGG,0.9559 ± 0.009
16,TAGAGGGTTT,1.02 ± 0.045
17,GGGTTTTGCG,0.9735 ± 0.0082
18,GATGTATGTA,0.973 ± 0.021
19,TTCTATGGTG,1 ± 0.04
20,GGGACAAACC,1.02 ± 0.019
21,TTCATAGCTT,1.02 ± 0.043
22,TTGTTAGTTA,1.01 ± 0.015
23,AACTAGGCGC,0.9875 ± 0.0065
24,GGTCAGGGTA,1.01 ± 0.04
25,AAAGCTATTC,1.12 ± 0.16
26,GCCACGGGGA,1.0073 ± 0.00078

row,Sequence,switch fluorescence ratio
1,ACGGGGTAGA,1.03 ± 0.052
2,CGTCCTGAGG,1.04 ± 0.019
3,CTTTTTGGGG,0.981 ± 0.029
4,TTTTCGGTCG,0.999 ± 0.046
5,GTTCTAAAAA,1.02 ± 0.042
6,TTTGCGCCGT,1.02 ± 0.058
7,GGTGCCAAGT,1.004 ± 0.0052
8,TTCAATAGGA,1.03 ± 0.045
9,TTTGAATCTT,1 ± 0.02
10,CATCGATGGT,1.004 ± 0.0026
11,TTAAATTGGG,1.01 ± 0.018
12,TGGGTTTTAG,0.977 ± 0.013
13,TGGGTTGTCG,1.02 ± 0.016
14,GCTTGTATGA,1.013 ± 0.0032
15,TCGGGGAGGA,0.956 ± 0.026
16,TCAAGTGGCC,1.02 ± 0.037
17,GTGAGATGGG,0.984 ± 0.03
18,TTTTATGTGG,1.01 ± 0.04
19,GTAGGGGTTC,0.982 ± 0.042
20,GAAAAAAGTG,0.994 ± 0.047
21,GGCTTAAGGT,1.02 ± 0.064
22,TTGTCTGTCC,0.98 ± 0.018
23,ATTCGGGGGG,0.99 ± 0.022
24,GTTTGACACT,0.99 ± 0.042
25,TTTATGGACT,1.03 ± 0.039
26,TTTTGAGAGA,1.11 ± 0.25

row,Sequence,switch fluorescence ratio
1,ACTTAAAAGC,1 ± 0.019
2,CCAGCGGCCA,1.02 ± 0.025
3,GCGCGGCTGG,1.02 ± 0.00077
4,CTTGATGTTG,1.01 ± 0.012
5,GAGATGGCAT,0.987 ± 0.04
6,TGGGGATACT,1.04 ± 0.036
7,TTGGTCGGGT,1.02 ± 0.024
8,AATGCTTGTC,0.952 ± 0.048
9,TACTCGCTGG,1.07 ± 0.036
10,TAGAGTTATT,1.01 ± 0.014
11,GTATGCGAGG,1 ± 0.08
12,AAGGTCTATT,0.998 ± 0.06
13,TTTATTGGT,1.01 ± 0.018
14,TAAGAAATGG,1.02 ± 0.079
15,CTCTGTGTTA,1.06 ± 0.015
16,CAGAGGATCA,0.996 ± 0.015
17,GGAATTATGT,1.02 ± 0.041
18,TATCTAATGC,1 ± 0.085
19,CGGGTCTATT,0.9649 ± 0.001
20,CGGGGTAGTC,0.967 ± 0.07
21,AATTTTATTG,0.988 ± 0.05
22,TTCGGTCGTA,1.01 ± 0.053
23,TATGATTTAA,1.01 ± 0.016
24,TCAACGCAGG,1.19 ± 0.065
25,TGACGAGTAA,1.5 ± 0.28
26,GCATCTTGGG,1 ± 0.029

row,Sequence,switch fluorescence ratio
1,TGCAAGGGCG,0.981 ± 0.021
2,TAAGTTAGTC,1.02 ± 0.012
3,GCTCTGGGGT,1.02 ± 0.033
4,GATTAAAGTC,1.03 ± 0.034
5,TAAAGGCGTG,0.96 ± 0.022
6,CAGAGGGGTA,1.01 ± 0.03
7,CAGGACAGCT,1.02 ± 0.02
8,GCGAGAGGGT,0.974 ± 0.025
9,TGGCTAAACG,0.992 ± 0.019
10,ACGAAGATTA,1.03 ± 0.014
11,GTCTAAGGGG,1.11 ± 0.25
12,ATAAGGGAGA,1 ± 0.037
13,TTTCGACTTT,1 ± 0.038
14,GGGGTAAGGC,0.979 ± 0.019
15,TCGTAACAGG,1.01 ± 0.034
16,GAGATTGCGG,0.9849 ± 0.0012
17,TGGGAGAGTA,0.996 ± 0.034
18,CGTTCCGGGT,1.02 ± 0.036
19,TGAGGCCGGG,1 ± 0.021
20,TTACTATCTG,1.01 ± 0.019
21,AGTGTAGGGA,1.01 ± 0.029
22,TATTAGCTAT,0.998 ± 0.037
23,TTAGCCGGAC,1.05 ± 0.013
